# Data from patent publication US5885961A, “Methods of using epithelins to modulate cell proliferation” (Bristol-Myers Squibb Company, priority 1995, dated 1999).
# “Also recorded” adds a separate entry of the source. Read-outs that look alike come from different tables or passages of the source.
# Columns and labels:
# EGF receptors = EGF receptors (Homo sapiens, UniProt P00533); experiment: Binding of 125I-EGF to its receptors
# [1] = tested on: human fibroblasts and several other human tumor cells; experiment: 125I-deoxyuridine incorporation into DNA, human fibroblasts and other human tumor cells; type: cell-based; settings: maximum dose tested: 20 ng/ml epithelin 1, 270 ng/ml epithelin 2
# Balb/MK cells [2] = experiment: Growth stimulatory activity (GSA), 125I-deoxyuridine incorporation into DNA of murine keratinocytes; type: cell-based; settings: FIG. 15A
# Experimental: FIG. 15(A-B). (FIG. 15A) Effect of epithelin 1 and epithelin 2 on the stimulation of ^125 I-deoxyuridine incorporation into DNA of the murine keratinocyte cell line Balb/MK. 2,000-4,000 cells were plated per well in 96 well plates in low-calcium medium containing 5% dialyzed FBS. Then GSA assays were performed as described in Section 6.2., infra. .circle-solid., epithelin 1; o, epithelin 2. (FIG. 15B) Effect of various concentrations of epithelin 2 on epithelin 1 (20 ng/ml) elicited incorporation of ^125 I-deoxyuridine into DNA of Balb/MK cells.
# Balb/MK cells were also used as indicator cells in 96 well plates to assess the growth inhibitory activity (GIA) or growth stimulatory activity (GSA) of a test material using ^125 I-deoxyuridine incorporation into DNA as described in the previous section.
# [3] = tested on: human colon carcinoma cell line HCT 116; experiment: 125I-deoxyuridine incorporation into DNA, HCT 116; type: cell-based; settings: maximum dose tested: 20 ng/ml epithelin 1, 270 ng/ml epithelin 2
# NRK cells = experiment: Mitogenic activity on NRK cells in monolayer; type: cell-based, rat
# [4] = tested on: A431 human epidermoid carcinoma cells; experiment: Cell growth inhibitory activity (GIA), 125I-deoxyuridine incorporation into DNA; type: cell-based; settings: for potency relative to epithelin 2 in inhibiting A431 cells: epithelin 1 vs epithelin 2
# Experimental: The cell growth inhibitory activity (GIA) assays were performed in flat-bottom 96 well plates (Falcon 3072). Human epidermoid carcinoma of vulva cells (A431) were used as test cells for GIA. 3.5×10^3 cells in 50 μl of test medium (DMEM supplemented with 5% heat inactivated fetal bovine serum (FBS), penicillin/streptomycin (PS) and glutamine) were placed in all wells except peripheral wells. The peripheral wells received 50 μl PBS. Three hours later, 50 μl of test sample in test medium was added to each well, while control wells received only 50 μl of test medium. Three wells were used for each concentration of test sample. Plates were incubated at 37° C. for 2-3 days. Then, 100 μl of a solution of […] (^125 I-IUdR, 4Ci/mg-0.5 mCi/ml, 2 μl/ml in test medium) was added to each well and plates were incubated at 37° C. After 4-6 hours, the medium was aspirated from the wells, which were then washed once with 200 μl PBS. Then, 200 μl methanol was added to each well, plates were incubated for 10 minutes at room temperature, and the methanol was removed by aspiration. 200 μl of 1M sodium hydroxide was added to each well, the plates were incubated for 30 minutes at 37° C. Sodium hydroxide was removed with titertek plugs (Flow Labs). The plugs were transferred into 12×75 mm plastic tubes and counted in a gamma counter to quantify ^125 I-IUdR incorporation.
# [5] = Resistance of bioactivity to chemical, heat and enzyme treatment; type: physicochemical
# Experimental: Epithelin 1 and epithelin 2 are resistant to treatment with 1M acetic acid, 1M ammonium hydroxide, 6M urea, 0.01M sodium metaperiodate, to heating at 56° C. for 30 minutes, and to treatment with various glycosidases or lipases. However, epithelin activity was sensitive to reduction, to reduction and 4-vinylpyridine treatment, and to digestion with proteinases such as trypsin, endoproteinase Lys-C, and endoproteinase Glu-C (V8).
# NRK-SA6 cells = experiment: Soft agar colony assay in the presence of TGFβ; type: cell-based, rat; settings: in the presence of TGFβ 1 ng/ml, FIG. 17
# Experimental: FIG. 17. Effect of epithelin 1 and 2 on NRK-SA6 cell colony formation in soft agar in the presence of TFGβ (1 ng/ml). The colony formation assay used is described in Section 6.2.3, infra. Solid bars, epithelin 1; stippled bar, epidermal growth factor; open bar, epithelin 2; hatched bar, 20 ng/ml epithelin 1 plus 500 ng/ml epithelin 2.
# A 0.38 ml base layer of 0.5% agar (Agar Noble; Difco Laboratories, Detroit, Mich.) in DMEM containing 10% heat inactivated FBS was added to 24 well Costar tissue culture plates. 0.38 ml of 0.3% agar containing the same medium-FBS mixture, 6-12×10^3 test cells, and the test proteins at various concentrations were overlaid on the basal layer of agar. The plates were incubated at 37° C. in a humidified atmosphere of 5% CO2 in air. Colonies were enumerated unfixed and unstained, and the number of colonies was scored between days 7 and 10. Colonies were defined as a cluster of at least eight cells.
# mink lung CCL 64 cells = experiment: 125I-deoxyuridine incorporation into DNA, CCL 64; type: cell-based
# Balb/MK cells [6] = experiment: Murine keratinocyte growth assay (cell count); type: cell-based; settings: FIG. 16A
# Experimental: FIG. 16(A-B). (FIG. 16A) Effect of epithelin 1 and epidermal growth factor (EGF) on the growth of Balb/MK cells. Assays were performed as described in Section 6.2., infra. .circle-solid., epithelin 1; o, EGF (FIG. 16B) Effect of various concentrations of epithelin 2 on the epithelin 1 (20 ng/ml) induced growth of murine keratinocytes.
# Balb/MK cells were plated at 1×10^4 cells per well in 1 ml of low calcium medium (Weissman and Aaronson, 1983, Cell 32:599-606; Carpenter and Zendegut, 1985, Anal. Biochem. 153:279-282) in 24-well Costar plates and incubated at 37° C. for 4-6 hours. Then media were removed and replaced with 1 ml of medium containing various concentrations of the test compound in triplicate. The control wells received only medium without any test material. The plates were incubated at 37° C. for 4 days, then medium was removed, wells were rinsed two times with 1 ml of phosphate-buffered saline, and the cells were detached with trypsin-EDTA and counted.
# monkey kidney COS1 cells = experiment: 125I-deoxyuridine incorporation into DNA, COS1; type: cell-based
molecule,measurement,setting,value
"epithelin 1: single chain polypeptide of 56 amino acid residues, 12 cysteines, purified from rat kidney; also expressed recombinantly in COS cells (protein) LPGYPVNEVKCDLEVSCPDGYTCCRLNTGAWGCCPFTKAVCCEDHIHCCPAGFQCHTETGTCEL",effect on binding of 125I-EGF to its receptors,EGF receptors,Neither epithelin 1 nor epithelin 2 significantly affected the binding
same,effect on human fibroblasts and several other human tumor cells,[1],Neither protein exhibited any significant effect
same,effect on 125I-deoxyuridine incorporation into DNA of Balb/MK cells,Balb/MK cells [2],stimulated the ^125 I-deoxyuridine incorporation in a dose-dependent manner
same,effect on growth of HCT 116 cells,[3],slighly inhibited
same,mitogenic activity on NRK cells in monolayer,NRK cells,exhibited mitogenic activity
same,effect on A431 cells,[4],inhibitory effect
same,50% inhibition of DNA synthesis (125I-deoxyuridine incorporation),"[4]; A431 cells, purified protein, FIG. 14",12.8 ng/well
same,IC50,"[4]; A431 cells, read-out: concentration for 50% inhibition of 125I-deoxyuridine incorporation",~21 nM
same,potency relative to epithelin 2 in inhibiting A431 cells,[4],~36 times
same,potency relative to epithelin 2 in inhibiting A431 cells,[4]; listed as Epithelin 1,about 36 times
same,Specific Activity,"[4]; final purification step Anal. Tsk-250, pool 1b","20,609 Units/mg"
same,Specific Activity,"[4]; final purification step Anal. Tsk-250, pool 2b","21,048 Units/mg"
same,specific activity of purified protein (GIA),[4]; one unit = amount inhibiting 125I-deoxyuridine incorporation into A431 cells by 50%,about 2.1×10^4 units/mg protein
same,calculated specific activity relative to epithelin 2,[4]; purified proteins,ten
same,growth inhibitory activity secreted by transfected COS cells,"[4]; recombinant, supernatant of cβrEPN1 transfection partially purified on TSK-250, A431 cells",approximately 25 GIA units/100 mm plate
same,"resistance to 1M acetic acid, 1M ammonium hydroxide, 6M urea, 0.01M sodium metaperiodate, heating at 56° C. for 30 minutes, glycosidases or lipases",[5],stable
same,"sensitivity of activity to reduction, reduction and 4-vinylpyridine treatment, and proteinases (trypsin, Lys-C, Glu-C)",[5],sensitive
same,"resistance to 1M acetic acid, 1M ammonium hydroxide, 6M urea, 0.01M sodium metaperiodate, heating at 56° C. for 30 minutes, glycosidases or lipases",[5]; listed as Epithelin 1,resistant
same,anchorage-independent growth (colony formation in soft agar) of NRK cells,NRK-SA6 cells,induced the anchorage-independent growth of NRK cells in a dose-dependent manner; also recorded: can induce anchorage-independent growth
same,effect on 125I-deoxyuridine incorporation into DNA,mink lung CCL 64 cells,significantly inhibited
same,effect on growth of Balb/MK cells (rodent keratinocytes),Balb/MK cells [6],did not proliferate in the absence of EGF or epithelin 1
same,effect on 125I-deoxyuridine incorporation into DNA,monkey kidney COS1 cells,significantly inhibited
"epithelin precursor: unprocessed 589-residue rat preprotein (SEQ ID NO:2) with 7 cysteine-rich motifs, expressed in COS cells (protein) MWILVSWLALVARLVAGTQCPDGQFCPVACCLDQGGANYSCCNPLLDTWPIITSRRLDGSCQIRDHCPDGYSCLLTVSGTSSCCPFSEGVSCDDGQHCCPRGFHCSADGKSCSQISDSLLGAVQCPGSQFECPDSATCCIMIDGSWGCCPMPQASCCEDRVHCCPHGASCDLVHTRCISPTGTHPLLKKFPAQRTNRAVAFPFSVVCPDAKTQCPDDSTCCELPTGKYGCCPMPNAICCSDHLHCCPQDTVCDLIQSKCISKDYTTDLMTKLPGYPVNEVKCDLEVSCPDGYTCCRLNTGAWGCCPFTKAVCCEDHIHCCPAGFQCHTETGTCELGVLQVPWMKKVTASLSLPDPQILKNDVPCDDFSSCPSNNTCCRLSSGDWGCCPIPEAVCCLDHQHCCPQGFKCMDEGYCQKGDRMVAGLEKMPVRQTTLLQHGDIGCDQHTSCPVGQTCCPSLKGSWACCQLPHAVCCEDRQHCCPAGYTCNVKARTCEKDAGSVQPSMDLTFGSKVGNVECGAGHFCHDNQSCCKDSQGGWACCPYVKGVCCRDGRHCCPIGFHCSAKGTKCLRKKTPRWDILLRDPAPRPLL",effect on A431 cells,[4],no activity
same,anchorage-independent growth (colony formation in soft agar) of NRK cells,NRK-SA6 cells,no activity
same,effect on growth of Balb/MK cells (rodent keratinocytes),Balb/MK cells [6],no activity
